The values below are quoted from earlier work in article PMC6156988.

The target in the data set is EspFu (Escherichia coli) (UniProt P0DJ88).
Chain of UniProt P0DJ88 (P0DJ88 whole entry): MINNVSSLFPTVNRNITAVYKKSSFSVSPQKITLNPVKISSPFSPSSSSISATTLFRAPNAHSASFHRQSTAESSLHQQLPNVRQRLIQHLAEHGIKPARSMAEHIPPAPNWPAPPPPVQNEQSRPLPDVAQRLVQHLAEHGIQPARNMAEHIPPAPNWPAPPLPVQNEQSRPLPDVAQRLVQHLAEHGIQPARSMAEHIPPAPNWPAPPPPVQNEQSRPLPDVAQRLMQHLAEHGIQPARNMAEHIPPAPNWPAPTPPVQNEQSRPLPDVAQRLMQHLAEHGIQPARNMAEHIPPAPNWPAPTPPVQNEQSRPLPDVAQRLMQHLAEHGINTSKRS

One may read the Kd as the equilibrium constant for the complex coming apart. For the substance IRTKS SH3 (from UniProt Q9UHR4), the Kd is 500 nM.
